Measurements from patent US20260347486 (published 2026).
Positions count from the first letter of the chain named.

T1: IL-18Rα ECD (human)
T1 chain: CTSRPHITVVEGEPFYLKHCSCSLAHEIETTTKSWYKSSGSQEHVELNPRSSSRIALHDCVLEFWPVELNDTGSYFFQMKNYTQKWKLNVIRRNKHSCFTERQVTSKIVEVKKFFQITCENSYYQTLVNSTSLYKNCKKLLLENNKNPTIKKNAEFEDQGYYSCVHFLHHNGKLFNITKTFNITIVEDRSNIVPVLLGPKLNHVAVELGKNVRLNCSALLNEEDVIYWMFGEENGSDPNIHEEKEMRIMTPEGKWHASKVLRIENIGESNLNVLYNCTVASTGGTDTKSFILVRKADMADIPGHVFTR

T2: IL-18Rβ ECD (human)
T2 chain: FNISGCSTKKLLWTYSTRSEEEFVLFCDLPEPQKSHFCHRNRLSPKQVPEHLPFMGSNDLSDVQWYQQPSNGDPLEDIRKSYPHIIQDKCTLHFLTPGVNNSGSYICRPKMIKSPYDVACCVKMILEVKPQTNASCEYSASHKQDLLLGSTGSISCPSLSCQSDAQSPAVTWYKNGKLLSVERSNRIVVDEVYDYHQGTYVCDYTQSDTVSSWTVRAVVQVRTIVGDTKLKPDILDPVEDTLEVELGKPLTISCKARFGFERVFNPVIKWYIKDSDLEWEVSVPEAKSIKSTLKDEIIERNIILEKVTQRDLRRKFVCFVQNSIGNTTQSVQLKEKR

B1: ms_IL18R_VHHβ19 (antibody, V domains shown)
VH: DVQLQESGGGLVQAGGSLRLSCAASGIRFNPFRMAWYRQAPGKQRELVAAIDSGGSTDYADSVRGRFTISRDNAKITVSLQMNSLKPEDTAVYYCNTQIFARDYWGQGSQVTVSS
B2: ms_IL18R_VHHβ18 (antibody, V domains shown)
VH: DVQLQESGGGLVQAGGSLRLSCAASGRTFSSYAMGWFRQAPGMVREFVAAISWSGGSTYYADSVQGRFTISRDNAKNTVYLQMNSLKPEDTAVYYCAADRSLSGSYFGATIDYWGQGTQVTVSS
B3: ms_IL18R_VHHβ13 (antibody, V domains shown)
VH: DVQLQESGGGLVQPGGSLRLSCAASGISFRVNVLGWYRQAPGKPRELVASISSGDSTNYADSVKGRFTISRDNAKSTVYLQMNNLKPEDTAVYYCNARIFARDNWGQGTQVTVSS
B4: ms_IL18R_VHHβ20 (antibody, V domains shown)
VH: DVQLQESGGGLVQAGGSLRLSCAASVSAFRLKVMGWYRQAPGKEREFVAAIDSGDTKSYTNAVKGRFTISGGAATNTVVLQMNSLKPEDTAFYYCNAVLFGRDYWGQGTQVTVSS
B5: ms_IL18R_VHHβ14 (antibody, V domains shown)
VH: DVPLQESGGGLVQAGGSLRLSCAASDRTVSKGAMGWFRQAPGKEREFVATIGRSSGITYYADSVKGRFTISRDNAKNTWYLQMNSLRPEDTAVYYCAADSSGIIRTTSWAYDYWGQGTQVTVSS
B6: ms_IL18R_VHHβ17 (antibody, V domains shown)
VH: DVPLQESGGGLVQAGGSLRLSCVASGFALDEIAVGWFRQAPGKEREGLSCISSSDGSTLYADSVKGRFTISSDNAKNTVYLQMNSLKPEDTAVYLCAAVRGSCFGRTTHWGQGTQVTVSS
B7: ms_IL18R_VHHβ22 (antibody, V domains shown)
VH: DVPLQESGGGLVQPGGSLRLSCAAPGFALEYYAIGWFRQAPGKEREGLSCVSSSRSGGSTVYADSVKGRFTISRDNAKNTVYLQIDSLKVEDTAVYYCAGAPAYRSHYCRLQADDYTYWGQGTQVTVSS
B8: ms_IL18R_VHHβ16 (antibody, V domains shown)
VH: DVQLQESGGGSVPAGGSLRLSCSASGFTTDDYIIGWFRQAPGKKREGVSCISTTDGSAWYADSVKGRFTISSDNANNTVTLQMNSLLPEDTSVYYCAEVSTGTGVLYCREEFYFGMDSWGKGTPVTVSS
B9: ms_IL18R_VHHβ12 (antibody, V domains shown)
VH: DVPLQESGGGLVQPGGSLRLSCRASGVGFSIYTMGWYRQAPGEQRHLVATVTTGGHINYGDSVQGRFTISRENNGNVVELQMHSLKPEDTAVYFCNAIYFGQDIWGQGTQVTVSS
B10: ms_IL18R_VHHβ21 (antibody, V domains shown)
VH: DVQLQESGGGLVQAGGSLRLSCAASGITFSPYVMGWYRQAPGKQRELVADMVNGGSTNYADSVKGRFTIFRDTAANTVTLQMNNLKPDDTAVYYCHIMIFGRASWGQGTQVTVSS
B11: ms_IL18R_VHHβ15 (antibody, V domains shown)
VH: DVQLQESGGGLVQPGGSLRLSCAASGRFFTINAMGWYRQTPGKQRELVAAITSDGSTTYQDSVKGRFTISRDNANRTANLYMNSLKSEDTAVYYCNADGRFNDNGYVKNFNIWGQGTQVTVSS
B12: IL18R_VHHα8β17 (antibody, V domains shown)
V domain 1: DVQLQESGGGLVQAGGSLRLSCAASGRTFSNDAMGWFRQAPGKEREFVAAVSWSLGMTYNADSVKGRFTISRDNAKNTVYLQMNSLKPDDTAVYYCAAGPDLSDELYGYDYWGQGTQVTVSS
V domain 2: B6 VH
B13: IL18R_VHHα8β15 (antibody, V domains shown)
V domain 1: B12 V domain 1
V domain 2: B11 VH
B14: IL18R_tanVHHα2β15 (antibody, V domains shown)
V domain 1: DVQLQESGGGLVQAGGSLRLSCAASGFTLLDSYDIGWFRQAPGKKREEVSCISSSGGKSTYYADSVKGRFTISRDNANNTVYLQMNSLKPEDTAVYYCAADGAEGFWSCQSGGYDYWGQGTQVTVSS
V domain 2: B11 VH
B15: IL18R_VHHα2β17 (antibody, V domains shown)
V domain 1: B14 V domain 1
V domain 2: B6 VH
B16: IL18R_tanVHHβ15α2 (antibody, V domains shown)
V domain 1: B11 VH
V domain 2: B14 V domain 1
B17: IL18R_VHHα2β15 (antibody, V domains shown)
V domain 1: B14 V domain 1
V domain 2: B11 VH
B18: ms_IL18R_VHHα4 (antibody, V domains shown)
VH: DVQLQESGGGLVQAGGSLRLSCAASGFTLGAYAINWFQQAPGKERARAWVLCITSSGGSAYYVDSVKGRFTVSRDNAKNTVYLQMNSLKPEDTAFYYCAAGGACAAAETMNYWGKGTLVTVSS
B19: ms_IL18R_VHHα2 (antibody, V domains shown)
VH: B14 V domain 1
B20: ms_IL18R_VHHα5 (antibody, V domains shown)
VH: DVQLQESGGGLVQAGGSLRLSCAASGRTFSNLAMAWFRQAPGKEREFVAAIDWNGDNRLYAASVKGRFTISRDNAKSTMYLQMNSLKPEDTAVYYCAADSTYSTDWYLNPLNRTRYDYWGQGTQVTVSS
B21: ms_IL18R_VHHα11 (antibody, V domains shown)
VH: DVPLQESGGGLVQPGQSLRLSCAASGSPIRFSVMGWFQQAPGKGRDLIARITSGGIVYYTDSVKGRFTISKDNAKNTLYLQMNSLNLEDTGVYYCNRLGGALFDWGQGTQVTVSS
B22: ms_IL18R_VHHα1 (antibody, V domains shown)
VH: DVPLQESGGGLVQTGGSLRLSCAASGFTFNSYAMGWYQQAPGKKYRELVAHIGSGGSTRYIDSVKGRFTISRDNAKNTVYLQMNSLKPEDTAVYYCNVYGATLRSWGQGTQVTVSS
B23: ms_IL18R_VHHα9 (antibody, V domains shown)
VH: DVQLQESGGGLVQPGESLRLSCTASRSDFSRYTMGWYRQAPGKWRELVARITSGGIPHYADSVKGRFTISRDNAKNTVTLQMNTLQFEDSAVYYCNTVGVALWAWGQGTLVTVSS
B24: ms_IL18R_VHHα10 (antibody, V domains shown)
VH: DVQLQESGGGLVQAGGSLRLSCAASGLPFSSYAMGWFRQAPGKDREFVAGITWSGSSIYYRDSVKGRFTISRDNAKNTVWLQMNDLKPEDTAVYYCAAARRRVGLPLADPREYVYWGQGTQVTVSS
B25: ms_IL18R_VHHα6 (antibody, V domains shown)
VH: DVPLQESGGGSVQPGGSLRLSCAASKSIFSINAMRWHRQAPGKQRELVATFTSSGRINYADSVKGRFTISTDNAKNTIYLQMNSLNPEDTAVYRCNVGLWEDGLWYDYWGQGTQVTVSS
B26: ms_IL18R_VHHα7 (antibody, V domains shown)
VH: B20 VH with R27H, S30N, F37C, A49S, A62Y, D105N, N109D, R115T, D117N, Q124P
B27: ms_IL18R_VHHα8 (antibody, V domains shown)
VH: B12 V domain 1
B28: ms_IL18R_VHHα3 (antibody, V domains shown)
VH: B18 VH with Q38R, V50D, L51A, G58R, V63A, N76H, G102A, E108G

Target: T1, IL-18Rα ECD
Test: BLI

Binding result, no binding:
B1, B2, B3, B4, B5, B6, B7, B8, B9, B10, B11

What follows are binders tested against IL-18BP (human) (assay: BLI).

Binding result, no binding:
B12, B13, B14, B15, B16, B17

Target: T2, IL-18Rβ ECD
Test: BLI

Binding result, no binding:
B1, B18, B19, B20, B21, B22, B23, B24, B25, B26, B27, B28
